According to publication doi:10.1101/2022.05.18.492574:

Target: GyrA14 (UniProt P0AES4)
Experiment: SEC-MALS

“GyrA14 (from UniProt P0AES4 363-494) (domain or fragment)” was tested, and the stoichiometry N was 2.
